Experimental data as given in patent publication US20220195070A1.

Legend:
Anti-hC5 Antibody [1] = assay: sandwich ELISA: SKA antibody coated, Anti-hC5 Antibody in pooled human serum; OD spiked / OD blank
Anti-hC5 Antibody [2] = assay: sandwich ELISA: SKA antibody coated, Anti-hC5 Antibody in pooled human serum, then human C5, mouse anti-hC5, anti-mouse-POD; incubation 9 min; blank OD 0.027
Anti-hC5 Antibody [3] = assay: sandwich ELISA: SKA antibody coated, Anti-hC5 Antibody in pooled human serum, then human C5, mouse anti-hC5, anti-mouse-POD; incubation 14 min; blank OD 0.028
Anti-hC5 Antibody [4] = assay: SPR (Biacore T200), 25 C, pH 7.4; SKA antibody captured by anti-rabbit IgG, Anti-hC5 Antibody injected 0-800 nM
Anti-hC5 Antibody [5] = assay: sandwich ELISA: SKA antibody coated, Anti-hC5 Antibody in pooled human serum, then human C5, mouse anti-hC5, anti-mouse-POD; incubation 19 min; blank OD 0.030
Anti-hC5 Antibody [6] = assay: sandwich ELISA: SKA antibody coated, Anti-hC5 Antibody in pooled human serum, then human C5, mouse anti-hC5, anti-mouse-POD; incubation 11 min; blank OD 0.027
Anti-hC5 Antibody [7] = assay: sandwich ELISA: SKA antibody coated, Anti-hC5 Antibody in pooled human serum, then human C5, mouse anti-hC5, anti-mouse-POD; incubation 21 min; blank OD 0.032
Anti-hC5 Antibody [8] = assay: SPR (Biacore T200), 25 C, pH 7.4; SKA antibody captured by anti-rabbit IgG, Anti-hC5 Antibody injected 0-800 nM; *reliability might be low
Anti-hC5 Antibody [9] = assay: sandwich ELISA: SKA antibody coated, Anti-hC5 Antibody in pooled human serum, then human C5, mouse anti-hC5, anti-mouse-POD; incubation 9 min; blank OD 0.028
Anti-hC5 Antibody [10] = assay: sandwich ELISA: SKA antibody coated, Anti-hC5 Antibody in pooled human serum, then human C5, mouse anti-hC5, anti-mouse-POD; incubation 16 min; blank OD 0.030
Anti-hC5 Antibody [11] = assay: sandwich ELISA: SKA antibody coated, Anti-hC5 Antibody in pooled human serum, then human C5, mouse anti-hC5, anti-mouse-POD; incubation 8 min; blank OD 0.027
Anti-hC5 Antibody [12] = assay: sandwich ELISA: SKA antibody coated, Anti-hC5 Antibody in pooled human serum, then human C5, mouse anti-hC5, anti-mouse-POD; incubation 18 min; blank OD 0.032
Anti-hC5 Antibody [13] = assay: sandwich ELISA: SKA antibody coated, Anti-hC5 Antibody in pooled human serum, then human C5, mouse anti-hC5, anti-mouse-POD; incubation 8 min; blank OD 0.026

Chain of Anti-hC5 Antibody (constant, as listed by the source limits assumed): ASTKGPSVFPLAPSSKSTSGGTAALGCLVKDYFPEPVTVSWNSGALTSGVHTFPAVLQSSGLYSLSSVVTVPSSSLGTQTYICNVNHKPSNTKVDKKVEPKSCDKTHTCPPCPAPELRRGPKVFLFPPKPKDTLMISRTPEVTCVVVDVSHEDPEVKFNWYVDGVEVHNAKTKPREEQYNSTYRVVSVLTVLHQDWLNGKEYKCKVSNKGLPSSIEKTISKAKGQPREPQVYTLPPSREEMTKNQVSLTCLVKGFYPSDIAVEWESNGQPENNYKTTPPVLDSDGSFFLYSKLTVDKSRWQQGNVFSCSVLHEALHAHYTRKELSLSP

| Signal to noise ratio (Anti-hC5 Antibody [1]) | koff (Anti-hC5 Antibody [4]) | kon (Anti-hC5 Antibody [4]) | Binder | other results |
| --- | --- | --- | --- | --- |
| 3.4 |  |  | SKA0027 (antibody, V domains shown) VH: QEQLVESGGGLVQPEGSLTLTCTASGFSFSSSDYMCWVRQAPGKGLEWIGCIYTGSGSTYYASWAKGRFTISKTSSTTVTLQMTSLTAADTATFFCARRGDSYSNYSFKLWGPGTLVTVSS VL: AFELTQTPASVEAAVGGTVTIKCQASQNIYSNLAWYQQKPGQPPKLLIYTASSLASGVSSRFKGSGSGTEFTLTISDLECDDAATYYCQCTYINNGYGNTFGGGTEVVVKG | OD (Anti-hC5 Antibody spiked) (Anti-hC5 Antibody [2]): 0.093 OD |
| 2.8 | 0.000254 s⁻¹ | 71800 M⁻¹ s⁻¹ | SKA0127 (antibody, V domains shown) VH: QSVEESGGRLVTPGTPLTLTCTVSGIDLSTYAMTWVRQAPGKGLEYIGYINGGGSAYYASWVNGRFTISKTSTTADLKITSPTTEDTATYFCARGPVGSYHRIWGPGTLVTVSS VL: ALVMTQTPSSVSEPVGGTVTINCRASEDIESYLAWYQQKPGQPPKLLIYATSNLETGVPSRFKGSGSGTDYTLTISGVQCADAATYYCQGYYELSSIDNNAFGGGTEVVVKG | OD (Anti-hC5 Antibody spiked) (Anti-hC5 Antibody [3]): 0.078 OD; Kd (Anti-hC5 Antibody [4]): 3.54 nM |
| 2.6 | 0.000197 s⁻¹ | 27300 M⁻¹ s⁻¹ | SKA0054 (antibody, V domains shown) VH: QSLEESGGGLVQPEGSLTLTCTASGFSFSSSFWICWVRQAPGKGLEWLACIDAGSSDNTYYANWAKGRFTISKTSSTTVTLQMTSLTDADTATYFCARDRDAAGDAGYGYATSFNLWGPGTLVTVSS VL: AIDMTQTPSSVSAAVGGTVTINCQASESIYSNLAWYQQKPGQRPKLLIYLASTLASGVPSRFKGSGSGTEFTLTISDLECADAATYYCQSVYYDSRGDTFFWAFGGGTEVVVKG | Kd (Anti-hC5 Antibody [4]): 7.22 nM; OD (Anti-hC5 Antibody spiked) (Anti-hC5 Antibody [5]): 0.077 OD |
| 3.7 | 0.000196 s⁻¹ | 108000 M⁻¹ s⁻¹ | SKA0052 (antibody, V domains shown) VH: QSLEESGGDLVKSGASLTLTCTASGFSFSSSYYMCWVRQAPGKGLEWIACIYTGSNGDTYYASWANGRFTISKASSTTVTLQMTSLTAADTATYFCARYTYDDDGDYTSFNLWGPGTLVTVSS VL: ALVMTQTPSSVSADVGGTVTINCQASQNIYRNLAWYQQKPGQRPKLLIYGASNLEPGVPSRFKGSGSGTEFTLTISDLECDDAATYYCQSVGYSGSVDTFFYAFGGGTEVVVKG | Kd (Anti-hC5 Antibody [4]): 1.81 nM; OD (Anti-hC5 Antibody spiked) (Anti-hC5 Antibody [6]): 0.098 OD |
| 2.3 | 5.17e-05 s⁻¹ | 88500 M⁻¹ s⁻¹ | SKA0046 (antibody, V domains shown) VH: QEQLVESGGGLVQPEGSLTLTCTASGFSLSSSNYMWWVRQAPGKGLEWIACIHASSSGDTYYANWAKGRFTISKTSSTTVTLQMTSLTAADTATYFCARGGYIYGDGGYNGVAGFSLWGPGTLVTVSS VL: DVVMTQTPASVSEPVGGTVTIKCQASETIGNALAWYQQKPGQRPKLLIYGASNLESGVPSRFKGSGSGTEFTLTISDVQCDDAATYYCQSIYYSSSADTFFFPFGGGTEVVVKG | OD (Anti-hC5 Antibody spiked) (Anti-hC5 Antibody [7]): 0.075 OD; Kd (Anti-hC5 Antibody [8]): 0.585 nM |
| 3.2 |  | 76900 M⁻¹ s⁻¹ | SKA0009 (antibody, V domains shown) VH: QSVEESGGRLVTPGTSLTLTCTVSGIDLSSYGMGWVRQAPGMGLEYIGIIYAAGRTYYASWVKGRFIISKTSTTVDLEMTSLTTEDTATYFCARHGSWYAGMDLWGPGTLVTVSS VL: AIEMTQTPSPVSAAVGGTVSINCQASEDIENYFAWYQQKPGQPPKLLIYDASELASGVPSRFSGSGSGTDFTLTISGVQCDDAATYYCQHADYAASSENTFGGGTEVVVKG | OD (Anti-hC5 Antibody spiked) (Anti-hC5 Antibody [9]): 0.089 OD; Kd (Anti-hC5 Antibody [8]): 0.0184 nM; koff (Anti-hC5 Antibody [8]): 1.41e-06 s⁻¹ |
| 2.5 |  | 30900 M⁻¹ s⁻¹ | SKA0016 (antibody, V domains shown) VH: QEQLVESGGGLVQPEGSLTLTCTASGFSFSSSDYMCWVRQAPGKGLEWIACIYIGSNGDTFYASWAKGRFTISKTSSTTVTLQMTSLTAADTATYFCARDSRRADDYGTRLDLWGQGTLVTVSS VL: DIVMTQTPSSVSAAVGGTVTIKCQASQNIYRNLAWYQQKPGQPPKLLIYQASKLESGVPSRFKGSGSGTEFTLTISDLDCDDAASYYCQSISYISSGDTFFWAFGGGTEVVVKG | OD (Anti-hC5 Antibody spiked) (Anti-hC5 Antibody [10]): 0.076 OD; Kd (Anti-hC5 Antibody [8]): 0.0191 nM; koff (Anti-hC5 Antibody [8]): 5.9e-07 s⁻¹ |
| 4 |  |  | SKA0171 (antibody, V domains shown) VH: QSLEESGGGLVQPEGSLTLSCTASGFSFSSSYYMCWVRQAPGKGLEWIACIYGGNSVITYYANWAKGRFTISETSSTTVTLQMTSLTAADTATYFCAREVHYDYLYTTYGYANLWGPGTLVTVSS VL: AIKMTQTPASVSAVVGGTVTINCQASETIYSGLAWYQQKPGQPPKLLIYDTANLETGVSSRFKGSGSGTEYTLTISDLECDDAATYFCLYAYYSGGSADNAFGGGTEVVVKG | OD (Anti-hC5 Antibody spiked) (Anti-hC5 Antibody [11]): 0.106 OD |
| 2.5 |  |  | SKA0001 (antibody, V domains shown) VH: QSVEESGGRLVTPGTPLTLTCTVSGFSLSYYAMNWVRQAPGKGLEWIGIIGISGGTYYASWAKGRFTISKSSSTTVDLKMTSPTTEDTATYFCARGGSAWGDLWGQGTLVTVSS VL: DIVMTQTPSSVSAAVGGTVTINCQASQSISRLLAWYQQKPGQPPKVLMHDASDLASGVPSRFKGSGSGTEYTLTISDLECADAATYYCQSYYWGSSGDIGYPFGGGTEVVVKG | OD (Anti-hC5 Antibody spiked) (Anti-hC5 Antibody [12]): 0.079 OD |
| 3 |  |  | SKA0028 (antibody, V domains shown) VH: QSVEESGGRLVTPGTPLTLTCTASGFTISSYHMSWVRQAPGKGLEWIGIIHGSGNMWYASWAKGRFTISRTSTTVDLEITSPTTEDTATYFCARIRFWASSNYYYFYLWGQGTLVTVSS VL: ALVMTQTPASVSEPVGGTVTINCQASQNIYSNLAWYQQKPGQRPRLLIYGASNLESGVPSRFRGSGSGTEFTLTISDLECADAATYYCQSAYWGNNNDGAFGGGTEVVVKG | OD (Anti-hC5 Antibody spiked) (Anti-hC5 Antibody [10]): 0.091 OD |
| 4.1 |  |  | SKA0117 (antibody, V domains shown) VH: QSLEESGGDLVKPEGSLTLTCTASGFSFSSSHYMCWVRQAPGKGLEWIACIYAGSSDNTYYASWAKGRFTISKTSSTTVTLQMTSLTAADTATYFCARDTYGYVGYASAGGFFNLWGPGTLVTVSS VL: ALVMTQTPASVSAAVGGTVTINCQASHNIYSVLAWYQQKPGQRPRLLIYGASNLESGVPSRFKGSGSGTEYTLTISDLECDDAATYYCQSAYYSSSTGDNAFGGGTEVVVKG | OD (Anti-hC5 Antibody spiked) (Anti-hC5 Antibody [2]): 0.112 OD |
| 4.2 |  |  | SKA0141 (antibody, V domains shown) VH: QSLEESGGDLVKPGASLTLTCTASGFSFSSSYYMCWVRQAPGKGLEWIACIYAGSSGSTYYASWAKGRFTISKTSSTTVTLQMTSLTAADTATYFCARDGDENMLVGGYFNLWGPGTLVTVSS VL: ALVMTQTPSSVSAAVGGTVTINCQASHNIYSNLAWYQQKPGQRPKLLIYGASNLESGVPSRFKGSGSGTEYTLTISDLECDDAATYYCQSAYYSSNAGYNAFGGGTEVVVKG | OD (Anti-hC5 Antibody spiked) (Anti-hC5 Antibody [13]): 0.109 OD |
